Here are results for one substance from publication doi:10.1101/2025.05.20.655083.

For this assay, the target named is BSB PyV-LTA;mNLSn peptide (Black Sea Bass polyomavirus). The assay can be described thus: fluorescence polarisation.

With “mouse importin α2 ΔIBB (from UniProt P52293 70-529) (domain or fragment)”, the fold decrease of binding affinity against BSB PyV-LTA;NLS came to 10 times.
